In PMC8869655, “Identification of the Kinase-Substrate Recognition Interface between MYPT1 and Rho-Kinase” (Biomolecules, 2022):

Key:
[1] = test system: GST-MRCKβ-cat-L (human, residues 1–550); test: In vitro kinase assay, MRCKβ activity; assay type: biochemical; conditions: S6 rsk substrate peptide (40 µM) as substrate, γ-[32P]ATP, N=3, Figure S3B
Description: (§1) The kinase reactions were performed in 50 μL of a reaction mixture (25 mM Tris-HCl, pH 7.5, 1 mM EDTA, 1 mM EGTA, 1 mM DTT, 5 mM MgCl2, and 50 μM γ-[^32P]ATP [1–20 GBq/mmol]), GST-Rho-kinase-cat-L or other kinases (1–10 nM), and substrates for 10–20 min at 30 °C. The reaction mixtures were applied to cation-exchange membranes and washed with 75 mM phosphoric acid three times, which was followed by scintillation counting.
(§2) Supplem entary Figure S3. Inhibition of the kinase activity by the MYPT1-684-868 aa-4A […]
(§3) (A) In vitro phosphorylation of various substrates by Rho -kinase. S6 rsk substrate peptide (40 µM), GST-MYPT1 fragments (0.5 µM), GST-MLC (0.5 µM), or GST-Scrib-C (1235-1630 aa) (0.5 µM) was phosphorylated by GS T-Rho-kinase-cat-L with 1 µM GST or GST-MYPT1-684-868 aa-4A in the presence of γ-[32P]ATP. Data represent means ± SD. N=3. (B ) GS T-Rho-kinase-cat-L, GST-MRCKβ-cat-L, and GST-PKACα activities were examined using the S6 rsk substrate peptide (40 µM) as a substrate in the presence of γ-[32P]ATP and GST-MYPT1-684-868 aa-4A fragment at the indicated concentrations. The reaction mixtures were applied onto cation-exchange membranes, followed by scintillation counting. Data represent means ± SD. N=3.
(§4) (1 picture or pasted object on this page, not shown here)

[2] = target: T1, GST-Rho-kinase-cat-L (bovine, residues 6–553) (Bos taurus, UniProt Q28021); test: In vitro kinase assay, Rho-kinase-cat-L activity; assay type: biochemical; conditions: S6 rsk substrate peptide as substrate, 50 μM γ-[32P]ATP, 30 °C, inhibitor at the indicated concentrations, scintillation counting, N = 3
T1 construct: GST-Rho-kinase-cat-L (bovine, residues 6–553); made in house; host or cells: Sf9 cells (baculovirus)
T1 sequence (Q28021 6-553): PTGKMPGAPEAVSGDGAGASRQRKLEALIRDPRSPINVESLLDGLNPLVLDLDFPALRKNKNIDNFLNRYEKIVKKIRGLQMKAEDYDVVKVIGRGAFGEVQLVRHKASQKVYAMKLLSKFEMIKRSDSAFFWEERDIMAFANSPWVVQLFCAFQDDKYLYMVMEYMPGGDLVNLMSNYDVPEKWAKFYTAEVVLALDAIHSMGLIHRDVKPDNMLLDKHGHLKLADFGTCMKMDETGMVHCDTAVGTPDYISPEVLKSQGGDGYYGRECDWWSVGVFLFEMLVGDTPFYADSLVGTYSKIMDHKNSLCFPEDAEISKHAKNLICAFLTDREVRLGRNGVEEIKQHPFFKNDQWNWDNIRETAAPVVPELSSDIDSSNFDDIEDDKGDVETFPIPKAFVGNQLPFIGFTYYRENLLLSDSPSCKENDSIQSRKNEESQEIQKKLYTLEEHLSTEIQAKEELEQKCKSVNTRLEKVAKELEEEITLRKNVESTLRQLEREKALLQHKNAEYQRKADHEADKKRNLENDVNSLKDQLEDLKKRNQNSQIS
Description: as §1
Figure 4 Direct inhibition of Rho-kinase activity in vitro. (A) In vitro phosphorylation of S6 rsk substrate peptide by Rho-kinase. GST-Rho-kinase-cat-L or GST-ROCK1-cat-L activity was examined using the S6 rsk substrate peptide as a substrate in the presence of γ-[^32P]ATP. GST-MYPT1-684–868 aa-WT or -4A was added at the indicated concentrations. The reaction mixtures were applied onto cation-exchange membranes, followed by scintillation counting. N = 3. (B) Effects of the deletion of DMs on the inhibition of Rho-kinase activity in vitro. GST-Rho-kinase-cat-L activity was examined using the S6 rsk substrate peptide as a substrate in the presence of γ-[^32P]ATP. GST-MYPT1-684–868-4A with or without DMs was added at the indicated concentrations. The reaction mixtures were applied onto cation-exchange membranes, followed by scintillation counting. N = 3. The deletion of DM1 or DM2 moderately weakened the inhibitory effect and the deletion of both DM1 and DM2 completely abrogated the inhibitory effects of the MYPT1 fragment on the Rho-kinase activity. (C) Sequences of the DMs and phosphorylation sites of MYPT1. The sequences of MYPT1 683–715 aa and 836-860 aa and synthetic peptides are shown. Basic (blue), acidic (red), and aliphatic (green) amino acids within DMs are indicated. Phosphorylation sites are replaced by Ala in pseudosubstrate (PS) peptides. (D) Inhibition of Rho-kinase activity by PS2 + DM2 synthetic peptide. GST-Rho-kinase-cat-L activity was examined using the S6 rsk substrate peptide as a substrate in the presence of γ-[^32P]ATP. Synthetic peptides were added at the indicated concentrations. The reaction mixtures were applied onto cation-exchange membranes, followed by scintillation counting. N = 3. (E) Inhibition of Rho-kinase activity by PS1 + DM3 synthetic peptide. GST-Rho-kinase-cat-L activity was examined using the S6 rsk substrate peptide as a substrate in the presence of γ-[^32P]ATP. Synthetic peptides were added at the indicated concentrations. The reaction mixtures were applied onto cation-exchange membranes, followed by scintillation counting. N = 3.

[3] = test system: GST-PKACα; test: In vitro kinase assay, PKA activity; assay type: biochemical; conditions: S6 rsk substrate peptide (40 µM) as substrate, γ-[32P]ATP, N=3, Figure S3B
Description: as §1, §2, §3, §4

[4] = target: T1, GST-Rho-kinase-cat-L (bovine, residues 6–553); test: In vitro kinase assay, Rho-kinase-cat-L activity; assay type: biochemical; conditions: 1 µM inhibitory fragment, Figure S3A, N=3
[5] = test system: NIH3T3 cells; test: Actin stress fiber formation in NIH3T3 cells; assay type: cell-based; conditions: GST-MYPT1 fragment expressed in NIH3T3 cells, 24 h, phalloidin staining, N = 4
Description: NIH3T3 cells were seeded on polylysine-coated 13-mm coverslips at a density of 4 × 10^4 cells/well in a 6-well dish and cultured in DMEM with 10% calf serum overnight. The cells were transfected with plasmid using LIPOFECTAMINE LTX reagent (Thermo Fisher Scientific, Waltham, MA, USA), according to the manufacture’s protocol. After 24 h, the cells were incubated in fresh DMEM containing 10% calf serum for 20 min, fixed with 3.7% formaldehyde in PBS for 10 min and then treated with PBS containing 0.2% Triton X-100 for 10 min. The fixed cells were blocked with 1% bovine serum albumin for 30 min and stained with the indicated antibodies. Cover slips were mounted with Fluoromount (Diagnostic Biosystems, Pleasanton, CA, USA) and the fluorescence was examined using a confocal laser scanning microscope LSM 780 and LSM5 PASCAL built around an Axio Observer Z1 or Axiovert 200M under the control of LSM software (Carl Zeiss, Oberkochen, Germany). Images were processed using ImageJ or Photoshop (Adobe, San Jose, CA, USA).
Figure 3 Inhibition of MYPT1 phosphorylation by the Rho-kinase-binding fragment of MYPT1. (A,B) Effect of the overexpression of Rho-kinase-binding MYPT1 fragments on GFP-MYPT1 phosphorylation in COS7 cells. Full-length GFP-MYPT1 and the GST-MYPT1 Rho-kinase binding fragment were transiently expressed in COS7 cells. The cell lysates were analyzed by immunoblot analysis using anti-MYPT1-pT855 (top panel), anti-GFP (middle), or anti-GST (bottom) antibodies. The phospho-GFP-MYPT1 levels were quantified and normalized by GFP-MYPT1 levels. Data represent means ± SD. **, p < 0.01, ***, p < 0.001 as compared with the control. (C) Effect of the overexpression of Rho-kinase-binding MYPT1 fragments on stress fiber formation in NIH3T3 cells. GST-MYPT1 fragments were expressed in NIH3T3 cells. The cells were fixed in formaldehyde, and immunostained with phalloidin and anti-GST antibody. […] The percentages of cells with stress fibers throughout the cell (SF(++)), cells with stress fibers partly in the cell (SF(+)), and cells without stress fibers (SF(–)) were analyzed. […]

B1: MYPT1-684–868 aa-4A: GST-fused rat MYPT1 fragment 684–868 aa with the four phosphorylation sites replaced with Ala (protein)
chain: KARSRQARQSRRAAQGVTLTDLQEAEKTIGRSRSTRTREQENEEKDKEEKEKQDKEKQEEKKESEVSREDEYKQKYSRTYDETYARYRPVSTSSSSTPSSSSLSTLGSSLYASSQLNRPNSLVGITSAYSRGLTKDNEREGEKKEEEKEGEDKSQPKSIRERRRPREKRRAAGVSFWTQDSDENE
modifications: left off: GST, end not stated, kept
notes: GST-fused rat MYPT1 fragment 684–868 aa with the four phosphorylation sites replaced with Ala
- Inhibition of MRCKβ activity (in words) [1]: moderately inhibited
- Inhibition of Rho-kinase-cat-L activity (in words) [2]: inhibited the Rho-kinase-cat-L activity
- Inhibition of PKA activity (in words) [3]: did not inhibit
- Inhibition of phosphorylation of MLC by Rho-kinase ([4]; substrate GST-MLC (0.5 µM)): inhibited
- Inhibition of phosphorylation of MYPT1 by Rho-kinase ([4]; substrate GST-MYPT1 fragments (0.5 µM)): much weaker
- Inhibition of phosphorylation of Scrib by Rho-kinase ([4]; substrate GST-Scrib-C (1235-1630 aa) (0.5 µM)): inhibited
- Effect on actin stress fiber formation [5]: reduced actin stress fibers
